Measurements published in publication PMC7748022.

T1: GST-PIF4 (UniProt Q8W2F3 1-430)
T1 sequence: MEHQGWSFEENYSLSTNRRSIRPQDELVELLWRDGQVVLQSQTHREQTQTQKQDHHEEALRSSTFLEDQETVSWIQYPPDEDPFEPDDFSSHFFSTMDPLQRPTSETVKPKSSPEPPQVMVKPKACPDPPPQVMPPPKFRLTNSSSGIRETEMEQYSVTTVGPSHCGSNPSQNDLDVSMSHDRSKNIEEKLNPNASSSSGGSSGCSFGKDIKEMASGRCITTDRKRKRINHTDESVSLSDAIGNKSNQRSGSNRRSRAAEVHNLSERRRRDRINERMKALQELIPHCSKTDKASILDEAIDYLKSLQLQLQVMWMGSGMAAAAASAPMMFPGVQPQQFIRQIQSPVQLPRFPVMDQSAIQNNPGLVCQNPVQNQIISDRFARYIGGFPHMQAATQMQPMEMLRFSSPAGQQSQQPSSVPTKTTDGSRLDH


Columns and labels:
GST-PIF4 [1] = target: T1, GST-PIF4; assay: EMSA
GST-PIF4 [2] = target: T1, GST-PIF4; assay: competition

| Binder | binding result (GST-PIF4 [1]) | binding result (GST-PIF4 [2]) |
| --- | --- | --- |
| PIF4 promoter probe (G-box) (dsDNA) DNA 1: ATTCCAACACAATGTCCCAGAACTTGCCACGTGTCGTTCATTTCAAAAGATTGCAGTACT DNA 2: AGTACTGCAATCTTTTGAAATGAACGACACGTGGCAAGTTCTGGGACATTGTGTTGGAAT | binds | – |
| PIF4-MU probe (CACGTG to AACGTG) (dsDNA) DNA 1: ATTCCAACACAATGTCCCAGAACTTGCAACGTGTCGTTCATTTCAAAAGATTGCAGTACT DNA 2: AGTACTGCAATCTTTTGAAATGAACGACACGTTGCAAGTTCTGGGACATTGTGTTGGAAT | – | no binding |
